Experimental data reported in PMC6355189, “A structural model of the immune checkpoint CD160–HVEM complex derived from HDX-mass spectrometry and molecular modeling” (Oncotarget, 2019).
One block for each binder: values may come before it. Ends that are not written are not given here.

Legend:
[1] = biological target: T1, Recombinant human protein HVEM with His Tag (human, UniProt Q92956 39-202); test: microcolumn affinity test with mass spectrometry; HVEM protein immobilised in a microcolumn; peptide applied; supernatant, last wash and elution analysed by mass spectrometry; conditions: both partners purified
T1 construct: herpes virus entry mediator (HVEM), human, recombinant, bought; also called HVEM protein; herpes virus entry mediator; source: bought: Sino Biological Inc., China (#10334-H08H)
T1 sequence (looked up): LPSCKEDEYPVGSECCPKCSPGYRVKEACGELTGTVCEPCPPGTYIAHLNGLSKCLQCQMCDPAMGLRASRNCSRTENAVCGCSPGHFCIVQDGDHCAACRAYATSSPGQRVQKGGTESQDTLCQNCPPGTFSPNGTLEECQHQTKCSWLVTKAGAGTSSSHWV

Human HVEM-Fc protein = biological target: T2, Human HVEM-Fc protein (human, UniProt Q92956 39-202); test: ELISA; biotinylated peptides or biotinylated CD160 (1 μg/ml) on a streptavidin microplate; HVEM-Fc at 20, 10 and 5 μg/ml, 1 hour at 25°C; PBS-T (5 mM Na2HPO4, 150 mM NaCl with addition of 0.3 M NaCl and 0.05% Tween-20, pH 7.4); detection by goat antihuman IgG(H+L)–HRP; conditions: both partners purified
T2 construct: herpes virus entry mediator (HVEM), human, as Fc fusion, bought; Detected by goat anti-human IgG(H+L)-HRP; source: bought: ACROBiosystems, USA (#HVM-H5258)
T2 sequence (looked up): T1 sequence (looked up)

binding result [1]: binds
B1: CD160 (61–80) (peptide)
peptide: Ac-GVGEISSQLMFTISQVTPLH-NH2
notes: CD160, human, residues 61-80; source: synthetic peptide

binding result (Human HVEM-Fc protein): binds
B2: CD160(61–80) peptide elongated by five glycine residues and biotin (peptide)
peptide: GVGEISSQLMFTISQVTPLH
modifications: also: elongated by five glycine residues and biotin, end not given here
notes: as for B1
